The values that follow come from patent US20220242952A1 (MorphoSys, published 2022).

Values joined by “and” are separate entries in the source; they are usually repeats but may differ in a detail not shown here. Identical values can stand only once.

Assay [1] concerns the target T1, CD19 (human, UniProt P15391 20-556).
T1 sequence: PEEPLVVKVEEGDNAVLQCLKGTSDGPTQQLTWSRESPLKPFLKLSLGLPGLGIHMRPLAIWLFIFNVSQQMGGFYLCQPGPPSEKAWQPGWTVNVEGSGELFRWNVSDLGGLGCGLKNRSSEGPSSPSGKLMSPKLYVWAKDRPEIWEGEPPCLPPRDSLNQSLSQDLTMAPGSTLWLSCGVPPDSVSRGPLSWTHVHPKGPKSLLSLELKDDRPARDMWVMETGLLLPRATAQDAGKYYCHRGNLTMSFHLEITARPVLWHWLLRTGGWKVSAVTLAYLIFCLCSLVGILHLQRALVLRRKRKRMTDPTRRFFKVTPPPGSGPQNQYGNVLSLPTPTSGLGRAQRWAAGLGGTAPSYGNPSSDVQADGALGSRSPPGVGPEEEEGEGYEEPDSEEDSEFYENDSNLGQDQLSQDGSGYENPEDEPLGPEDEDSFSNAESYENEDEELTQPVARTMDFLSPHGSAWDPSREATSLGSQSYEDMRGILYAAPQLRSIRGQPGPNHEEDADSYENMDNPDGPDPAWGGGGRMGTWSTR
The assay is described as follows: flow cytometry, QuantiBRITE PE quantitation, Toledo (DLBCL) cells. (Flow cytometry measures light scatter and fluorescence of single cells or particles in a stream.)

Assay [2] deals with T1, CD19. As to the kind of experiment: flow cytometry, QuantiBRITE PE quantitation, MEC-1 (CLL) cells.
Assay [3] concerns the target T1, CD19. As to the kind of experiment: flow cytometry, QuantiBRITE PE quantitation, JVM-2 (MCL) cells.
Assay [4] has as its target CD20 (UniProt P11836). As to the kind of experiment: flow cytometry, QuantiBRITE PE quantitation, Toledo (DLBCL) cells.
Assay [5] concerns the target CD20 (UniProt P11836). As to the kind of experiment: flow cytometry, QuantiBRITE PE quantitation, MEC-1 (CLL) cells.
Assay [6] deals with CD20 (UniProt P11836). The assay is described as follows: flow cytometry, QuantiBRITE PE quantitation, JVM-2 (MCL) cells.
Sequence of CD20 (P11836 whole entry): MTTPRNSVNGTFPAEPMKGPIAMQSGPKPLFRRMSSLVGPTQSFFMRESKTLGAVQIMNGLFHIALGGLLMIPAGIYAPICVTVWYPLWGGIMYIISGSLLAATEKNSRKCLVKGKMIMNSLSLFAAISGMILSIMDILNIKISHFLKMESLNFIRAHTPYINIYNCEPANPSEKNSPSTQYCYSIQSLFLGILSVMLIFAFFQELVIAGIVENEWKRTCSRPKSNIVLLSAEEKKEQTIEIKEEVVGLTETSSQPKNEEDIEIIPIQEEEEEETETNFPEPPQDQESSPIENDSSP
The target of assay [7] is CD20 (UniProt P11836). As to the kind of experiment: cell-based or functional assay.
For assay [8], the target named is T1, CD19. The assay is described as follows: cell-based or functional assay.

As for “Biolegend CD19-PE (Biolegend #302208; clone HIB19) (antibody)”, the antibodies bound per cell (ABC) (antibodies bound per cell) in assay [1] came to 35700; in assay [2] it was 60900; in assay [3] it was 26200.
As for “Biolegend CD20-PE (Biolegend #302306; clone 2H7) (antibody)”, the antibodies bound per cell (ABC) (antibodies bound per cell) is 28000 in assay [4], 71300 in assay [5] and 15500 in assay [6].
In the case of Rituximab (antibody), in assay [7], the % specific killing, ADCC with NK cells, JVM-2 cells, E:T 0.1:1, 10 ug/ml antibody turned out to be 0.5%; the % specific killing, ADCC with NK cells, JVM-2 cells, E:T 3:1 and 6:1, 10 ug/ml antibody was 39% and 48%; the % specific killing, ADCC with NK cells, MEC-1 cells, E:T 0.1:1, 10 ug/ml antibody stood at 3%; the % specific killing, ADCC with NK cells, Toledo cells, E:T 0.1:1, 10 ug/ml antibody came to 3%. Further, the % specific killing, ADCC with NK cells, Toledo cells, the two higher E:T ratios, 10 ug/ml antibody in assay [7] was determined as 60%.

B1: MOR00208 (antibody, human IgG1, kappa, V domains shown)
VH: EVQLVESGGGLVKPGGSLKLSCAASGYTFTSYVMHWVRQAPGKGLEWIGYINPYNDGTKYNEKFQGRVTISSDKSISTAYMELSSLRSEDTAMYYCARGTYYYGTRVFDYWGQGTLVTVSS
VL: DIVMTQSPATLSLSPGERATLSCRSSKSLQNVNGNTYLYWFQQKPGQSPQLLIYRMSNLNSGVPDRFSGSGSGTEFTLTISSLEPEDFAVYYCMQHLEYPITFGAGTKLEIKR
For B1, in assay [8], the “% specific killing, ADCC with NK cells, Toledo cells, the two higher E:T ratios, 10 ug/ml antibody” value was about 60%; the “specific killing ratio compared to Rituximab, individual donor 296, JVM-2 cells, lowest E:T ratio” value is at most 20 fold; the “specific killing ratio compared to Rituximab, individual donor 299, Toledo cells, lowest E:T ratio” value was at most 30 fold; the “specific killing ratio normalized to Rituximab, JVM-2 cells, E:T 0.1:1, median of donors” value is 5.3 fold. In addition, in assay [8], the “specific killing ratio normalized to Rituximab, Toledo cells, E:T 0.1:1, median of donors” value was 2.5 fold and the “specific killing ratio over Rituximab, MEC-1 cells, E:T 0.1:1, average of 17 donors” value came to 1.6 fold.
